Measured values published in patent US20180003720A1.

Molecular target: γ-H2AX peptide standard (synthetic peptide …, serine at position 27 phosphorylated)
Test: sandwich chemiluminescent ELISA: plate-coated JBW301 captures the γ-H2AX peptide standard; detected with rabbit polyclonal anti-H2AX (Abcam) and goat anti-rabbit HRP

Sequence of γ-H2AX peptide standard (synthetic peptide …, serine at position 27 phosphorylated) (peptide, as listed by the source): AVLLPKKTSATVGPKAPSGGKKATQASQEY

Work on “Anti-γ-H2AX (Ser139) mouse monoclonal antibody, clone JBW301 (Millipore)” yielded an Average RLU (n = 3) at 5 pM γH2AX standard of 993000 RLU, an Average RLU (n = 3) at 10 pM γH2AX standard of 2.02e+06 RLU and an Average RLU (n = 3) at 20 pM γH2AX standard of 4.6e+06 RLU. The Average RLU (n = 3) at 40 pM γH2AX standard was 1e+07 RLU, the Average RLU (n = 3) at 80 pM γH2AX standard was 2.08e+07 RLU and the Average RLU (n = 3) at 160 pM γH2AX standard was 3.74e+07 RLU. It also gave an Average RLU (n = 3) at 320 pM γH2AX standard of 5.88e+07 RLU and an Average RLU (n = 3) at 640 pM γH2AX standard of 7.92e+07 RLU.
